Experimental data reported in patent US20260103686A1, “MICROBIAL STRAIN, PROTEIN, AND METHOD FOR PRODUCING GALLIC ACID USING MICROBIAL STRAIN OR PROTEIN” (UNIVERSITY OF TSUKUBA, priority 2022, published 2026).

Tested on: O=C(O)c1ccc(O)c(O)c1
Assay: purified protein, by the assay type
Conditions: other: PCA substrate, 200 µM NADPH, 10 µM FAD, pH 7.9, 25° C., 340 nm
Protocol: The cell-free extracts were subjected to a HisTrap HP column (GE healthcare) which was equilibrated with an equilibration buffer (20 mM Tris-HCl buffer (pH 7.9), 20 mM imidazole), and then fractions eluted with an eluent (20 mM Tris-HCl buffer (pH 7.9), 500 mM imidazole) were collected.
The protein concentrations of the purified enzyme liquids were measured using Bio-Rad Protein Assay Dye Reagent Concentrate (Bio-Rad, USA), and the purified enzyme liquids were diluted to 1 of mg/mL with a buffer. Thus, purified enzyme liquids protocatechuic acid 5-hydroxylases, HgPobA, HyPobA, PoPobA, HgPobA-TY and PaPobA, were prepared.
Using the purified enzyme liquids of HgPobA, HgPobA-TY, PoPobA, HyPobA and PaPobA described above, a reaction kinetic analysis was conducted.

Pseudomonas aeruginosa-derived PobA (PaPobA), p-hydroxybenzoate hydroxylase, wild type, SEQ ID NO: 28 (Pseudomonas aeruginosa PAO1)
Km: 140 µM
